These results are taken from patent US20250270343A1 (Alector, published 2025).

Test [1] addresses T1, soluble mouse GPNMB-Fc polypeptide (mouse IgG2A Fc) (mouse, UniProt Q99P91 23-502).
T1 construct: extracellular domain; bought (R&D System); also called moGPNMB-Fc; mGPNMB-Fc; not shown: Fc region of mouse IgG2A
T1 sequence (looked up): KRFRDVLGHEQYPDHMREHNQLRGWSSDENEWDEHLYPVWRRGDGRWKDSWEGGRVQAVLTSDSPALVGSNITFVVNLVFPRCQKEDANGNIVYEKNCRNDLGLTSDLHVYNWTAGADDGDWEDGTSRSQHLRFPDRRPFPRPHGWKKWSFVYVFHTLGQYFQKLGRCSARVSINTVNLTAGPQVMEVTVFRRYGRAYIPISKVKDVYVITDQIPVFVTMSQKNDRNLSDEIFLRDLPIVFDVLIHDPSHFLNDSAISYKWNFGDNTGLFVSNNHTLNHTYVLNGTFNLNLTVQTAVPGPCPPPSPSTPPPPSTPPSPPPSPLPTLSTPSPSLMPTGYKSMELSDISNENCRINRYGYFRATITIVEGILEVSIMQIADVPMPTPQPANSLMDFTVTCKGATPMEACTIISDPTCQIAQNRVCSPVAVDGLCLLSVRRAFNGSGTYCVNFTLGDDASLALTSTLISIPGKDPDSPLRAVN
Kind of test: FACS, blocking of moGPNMB-Fc binding to SVEC4-10 cells. Here is the method: Purified full-length anti-GPNMB antibodies of the present disclosure were evaluated for their ability to block binding of moGPNMB-Fc to SVEC4-10 cells to determine the ligand blocking potency of each anti-GPNMB monoclonal antibody. Briefly, 2 μg/mL moGPNMB-Fc (mouse IgG2A Fc) diluted in binding buffer was pre-complexed with increasing concentrations of anti-GPNMB antibody of the present disclosure or human IgG1 isotype control antibody in 96-well plates. Subsequently, 100,000 SVEC4-10 cells were added per well and incubated on ice for 30 minutes. Soluble moGPNMB-Fc bound to cell surface was detected with fluorescent anti-mouse IgG2A secondary antibody and measured on FACSCanto. (FIG. 5A and FIG. 5B) IC50 values (for antibodies that block moGPNMB-Fc cell binding) and EC50 values (for antibodies that enhance moGPNMB-Fc cell binding) based on changes in MFI values were calculated (average+standard error) for each anti-GPNMB antibody and listed in Table 6. In Table 6, NA indicates no activity. […] In all cases, certain anti-GPNMB antibodies of the present disclosure blocked soluble GPNMB binding to cells, while other anti-GPNMB antibodies of the present disclosure enhanced soluble GPNMB binding to cells.
Background: In flow cytometry, cells or beads pass a laser one at a time.

The target of test [2] is T1, soluble mouse GPNMB-Fc polypeptide …. Briefly: FACS, blocking of mGPNMB-Fc binding to SVEC cells. Here is the method:
Purified full-length affinity matured, anti-GPNMB antibodies were evaluated for their ability to block binding of mouse GPNMB-Fc to SVEC cells to calculate the ligand blocking potency of each clone. Briefly, 2 μg/ml soluble mGPNMB-Fc (mouse IgG2A Fc) diluted in binding buffer was pre-complexed with increasing concentrations of anti-GPNMB antibody or human IgG1 isotype control in 96-well plates. Subsequently, 100,000 SVEC cells were added per well and incubated on ice for 30 minutes. Soluble GPNMB-Fc bound to cell surface was detected with fluorescent anti-mouse IgG2A secondary antibody and measured on FACSCanto. Curves were fit using nonlinear regression analysis with Graphpad Prism 6 software.

Test [3] deals with T2, soluble mouse GPNMB (recombinant extracellular domain) (mouse, UniProt Q99P91 23-502).
T2 construct: also called moGPNMB; not shown: C-terminal polyhistidine or Avi-His tag
T2 sequence: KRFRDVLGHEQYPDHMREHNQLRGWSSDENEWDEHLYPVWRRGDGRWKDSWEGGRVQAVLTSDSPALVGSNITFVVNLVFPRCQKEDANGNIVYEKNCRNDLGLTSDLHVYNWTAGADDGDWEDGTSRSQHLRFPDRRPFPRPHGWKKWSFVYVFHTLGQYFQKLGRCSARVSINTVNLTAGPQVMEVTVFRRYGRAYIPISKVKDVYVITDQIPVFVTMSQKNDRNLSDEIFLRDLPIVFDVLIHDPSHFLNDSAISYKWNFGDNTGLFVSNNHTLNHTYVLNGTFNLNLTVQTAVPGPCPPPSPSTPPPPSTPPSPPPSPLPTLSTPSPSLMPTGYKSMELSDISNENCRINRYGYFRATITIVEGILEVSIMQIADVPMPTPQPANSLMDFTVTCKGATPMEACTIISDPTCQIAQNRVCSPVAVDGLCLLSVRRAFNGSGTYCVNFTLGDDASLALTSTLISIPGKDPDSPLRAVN
Briefly: SPR Biacore, IgG captured. Background: SPR reads the build-up and loss of mass on a sensor chip optically.

B1: anti-GPNMB antibody GPN-43 (antibody, human IgG1, V domains shown)
VH: EVQLQQSGPELVKPGASVKISCKASGYTFTDYYMNWVRQSHGKSLEWIGDINPYHGGSTYNQKIKVKATLTVDKSSSTAYMELRSLTSEDSAVYYCARNWPYFDYWGQGTTLTVSS
VL: DIQMTQSPASLSASVGETVTITCRASENIYSFLVWYQQKQGKSPQLLVYNAKTLAEGVPSRFSGSGSGTQFSLKISSLQPEDFGSYYCQHHFGTPPYTFGGGTKLEIK
notes: chimeric
In test [1], B1 yielded an IC50 of 5.37 nM.

B2: anti-GPNMB antibody GPN-35 (antibody, human IgG1, V domains shown)
VH: EVQLVESGGGSVRPGRSLKLSCAAAGFTFSDYYMTWVRQAPTKGLEWVASINHDGGGTYYRDSVKGRFTISRDNARSSLYLQMDSLRSEDTGTYYCTTRAGWHWGQGVMVTVSS
VL: DIQMTQSPASLSASLGETVSIECLASEDIYNYLTWYQQKPGKSPQVLIYSASGLQDGVPSRFSGSGSGRQYSLKINGLESEDAATYFCLQDSEYPLTFGSGTKLEIK
notes: chimeric
Molecule B2 displayed an IC50 in test [1] of 1.17 nM.

B3: anti-GPNMB antibody GPN-48 (antibody, human IgG1, V domains shown)
VH: QVQLQQSGPELVKPGASVKLSCRASGYGFSSFWMNWVKQRPGKGLEWIGRIYPGKGDTLYNGKFKDKATLTADESSSTAYMQLSSLTSEDSAVYFCARSIYYYDYWYFDVWDTGTTVTVSS
VL: DIVMTQSHKFMSTSVGDRVNITCKASQDVNSAIAWYQQKPGQSPKLLIYSASYRFIGVPDRFTGSGSGTGFTFTISSVQAEDLAVYYCQQHYTTPLTFGAGTKLELK
notes: chimeric
Turning to B3, the IC50 in test [1] is 1.2 nM.

B4: anti-GPNMB antibody GPN-83 (antibody, V domains shown)
VH: QVQLQESGPGLVKPSETLSLTCTVSGISITTGNYRWSWIRQPPGKGLEWIGYIDYSGTITYNPSLKSRVTITRDTSKNQFSLELSSVTAADTAVYYCARDLTHWYFDVWGQGTLVTVSS
VL: DIVMTQSPDSLAVSLGERATINCKSSRSVDYYGIGFVNWYQQKPGQPPKLLIYATSIQGSGVPDRFSGSGSGTDFTLTISSLQAEDVAVYYCQQQKEVPPTFGGGTKVEIK
As to B4, the IC50 in test [2] is 1.49 nM. Moreover, in test [3], the equilibrium dissociation constant (Kd) was 1.5 nM, the koff is 0.00024 s⁻¹ and the on-rate (kon) was 160000 M⁻¹ s⁻¹.

B5: anti-GPNMB antibody GPN-86 (antibody, V domains shown)
VH: QVQLQESGPGLVKPSETLSLTCTVSGISITTGNYRWSWIRQPPGKGLEWIGYIDYSGTITYNPSLKSRVTITRDTSKNQFSLELSSVTAADTAVYYCARDLTHWYFDVWGQGTLVTVSS
VL: DIVMTQSPDSLAVSLGERATINCKSSRSVDYYGIGFLNWYQQKPGQPPKLLIYATSKQGSGVPDRFSGSGSGTDFTLTISSLQAEDVAVYYCQQQKEVPPTFGGGTKVEIK
As for B5, the IC50 in test [2] turned out to be 1.26 nM. Moreover, in test [3], the dissociation constant Kd was determined as 1.2 nM, the dissociation rate constant (koff) is 0.00023 s⁻¹ and the kon was found to be 190000 M⁻¹ s⁻¹.

B6: anti-GPNMB antibody GPN-90 (antibody, V domains shown)
VH: QVQLQESGPGLVKPSETLSLTCTVSGISITTGNYRWSWIRQPPGKGLEWIGYIDYSGTITYNPSLKQRVTITRDTSKNQFSLELSSVTAADTAVYYCARDLTHWYFDVWGQGTLVTVSS
VL: DIVMTQSPDSLAVSLGERATINCKSSRSVDYYGIGFLNWYQQKPGQPPKLLIYATSHQGSGVPDRFSGSGSGTDFTLTISSLQAEDVAVYYCQQQKEVPPTFGGGTKVEIK
In turn, B6 showed an IC50 in test [2] of 1.43 nM. Moreover, in test [3], the equilibrium dissociation constant (Kd) is 0.7 nM, the koff was 0.00011 s⁻¹ and the kon came out at 160000 M⁻¹ s⁻¹.

B7: anti-GPNMB antibody GPN-87 (antibody, V domains shown)
VH: QVQLQESGPGLVKPSETLSLTCTVSGISITTGNYRWSWIRQPPGKGLEWIGYIDYSGTITYNPSLKSRVTITRDTSKNQFSLELSSVTAADTAVYYCARDLTHWYYDVWGQGTLVTVSS
VL: DIVMTQSPDSLAVSLGERATINCKSSRSVDYYGIGFLNWYQQKPGQPPKLLIYATSKQGSGVPDRFSGSGSGTDFTLTISSLQAEDVAVYYCQQQKEVPPTFGGGTKVEIK
With B7, the IC50 in test [2] stood at 0.98 nM. Besides, in test [3], the dissociation constant (Kd) came to 1.5 nM, the off-rate (koff) was 0.00028 s⁻¹ and the kon was 190000 M⁻¹ s⁻¹.

B8: anti-GPNMB antibody GPN-84 (antibody, V domains shown)
VH: QVQLQESGPGLVKPSETLSLTCTVSGISITTGNYRWSWIRQPPGKGLEWIGYIDYSGTITYNPSLKSRVTITRDTSKNQFSLELSSVTAADTAVYYCARDLTHWYYDVWGQGTLVTVSS
VL: DIVMTQSPDSLAVSLGERATINCKSSRSVDYYGIGFVNWYQQKPGQPPKLLIYATSIQGSGVPDRFSGSGSGTDFTLTISSLQAEDVAVYYCQQQKEVPPTFGGGTKVEIK
In turn, B8 yielded a concentration for half-maximal inhibition (IC50) in test [2] of 1.44 nM. Moreover, in test [3], the Kd amounted to 2.1 nM, the koff is 0.00034 s⁻¹ and the kon is 160000 M⁻¹ s⁻¹.

B9: anti-GPNMB antibody GPN-85 (antibody, V domains shown)
VH: QVQLQESGPGLVKPSETLSLTCTVSGISITTGNYRWSWIRQPPGKGLEWIGYIDYSGTITYNPSLKQRVTITRDTSKNQFSLELSSVTAADTAVYYCARDLTHWYFDVWGQGTLVTVSS
VL: DIVMTQSPDSLAVSLGERATINCKSSRSVDYFGIGFLNWYQQKPGQPPKLLIYATSHQGSGVPDRFSGSGSGTDFTLTISSLQAEDVAVYYCQQQKEVPPTFGGGTKVEIK
B9: the IC50 in test [2] amounted to 1.51 nM. Besides, in test [3], the equilibrium dissociation constant (Kd) stood at 0.5 nM, the koff stood at 7.4e-05 s⁻¹ and the kon worked out at 140000 M⁻¹ s⁻¹.

B10: anti-GPNMB antibody GPN-88 (antibody, V domains shown)
VH: QVQLQESGPGLVKPSETLSLTCTVSGISITTGNYRWSWIRQPPGKGLEWIGYIDYSGTITYNPSLKSRVTITRDTSKNQFSLELSSVTAADTAVYYCARDLTHWYFDVWGQGTLVTVSS
VL: DIVMTQSPDSLAVSLGERATINCKSSRSVDYYGIGFLNWYQQKPGQPPKLLIYATSHQGSGVPDRFSGSGSGTDFTLTISSLQAEDVAVYYCQQQKHVPPTFGGGTKVEIK
Turning to B10, the IC50 in test [2] stood at 0.625 nM. In addition, in test [3], the dissociation constant Kd amounted to 1.1 nM, the off-rate (koff) came to 0.00017 s⁻¹ and the on-rate (kon) was 150000 M⁻¹ s⁻¹.

B11: anti-GPNMB antibody GPN-91 (antibody, V domains shown)
VH: QVQLQESGPGLVKPSETLSLTCTVSGISITTGNYRWSWIRQPPGKGLEWIGYIDYSGTITYNPSLKSRVTITRDTSKNQFSLELSSVTAADTAVYYCARDLTHWYFDVWGQGTLVTVSS
VL: DIVMTQSPDSLAVSLGERATINCKSSRSVDYYGIGFLNWYQQKPGQPPKLLIYATSHQGSGVPDRFSGSGSGTDFTLTISSLQAEDVAVYYCQQQKERPPTFGGGTKVEIK
Take B11: in test [2], the concentration for half-maximal inhibition (IC50) is 0.64 nM. For the same molecule, in test [3], the Kd turned out to be 1.1 nM, the dissociation rate constant (koff) was determined as 0.00014 s⁻¹ and the kon amounted to 140000 M⁻¹ s⁻¹.

B12: anti-GPNMB antibody GPN-89 (antibody, V domains shown)
VH: QVQLQESGPGLVKPSETLSLTCTVSGISITTGNYRWSWIRQPPGKGLEWIGYIDYSGTITYNPSLKSRVTITRDTSKNQFSLELSSVTAADTAVYYCARDLTHWYYDVWGQGTLVTVSS
VL: DIVMTQSPDSLAVSLGERATINCKSSRSVDYYGIGFLNWYQQKPGQPPKLLIYATSHQGSGVPDRFSGSGSGTDFTLTISSLQAEDVAVYYCQQQKEVPPTFGGGTKVEIK
Regarding B12, the 50% inhibitory concentration (IC50) in test [2] was found to be 1.18 nM. Besides, in test [3], the Kd worked out at 0.8 nM, the koff is 0.00012 s⁻¹ and the on-rate (kon) came out at 160000 M⁻¹ s⁻¹.

In general, IC50 refers to the point on the concentration scale where inhibition reaches its midpoint. A high value points to weaker potency. Usually Kd stands for a measure of binding affinity in units of concentration. The koff is the first-order rate constant of dissociation. For orientation: kon means the second-order rate constant of association.
